Results from patent US20240199745A1, “ANTI-EGFR ANTIBODY DRUG CONJUGATES” (priority 2016, published 2024).
Residue numbers refer to the chain shown, from its start.

B1: AbG-SR (antibody, human IgG1, kappa, V domains shown)
VH: EVQLQESGPGLVKPSQTLSLTCTVSGYSISNDFAWNWIRQLPGKGLEWMGYISYKGNTRYQPSLKSRITISRDTSKNQFFLKLNSVTAADTATYYCVTASRGLPYWGQGTLVTVSS
VL: DIQMTQSPSSMSVSVGDRVTITCHSSQDITYNIGWLQQKPGKSFKGLIYHGANLDDGVPSRFSGSGSGTDYTLTISSLQPEDFATYYCVQYDEFPWTFGGGTKLEIKR
modifications: synthon SR on reduced interchain cysteines; average DAR 2.8 per ADC
B2: AbB-TX (antibody, human IgG1, kappa, V domains shown)
VH: B1 VH with L41P, L103F, Y105W
VL: B1 VL with T30N, Y31S, A52T, D92A, E93Q
modifications: synthon TX on reduced interchain cysteines; average DAR 2.2 per ADC
B3: AbG-AAA (antibody, human IgG1, kappa, V domains shown)
VH: B1 VH
VL: B1 VL
modifications: synthon AAA on reduced interchain cysteines; average DAR 1.9 per ADC
B4: AbK-KZ (antibody, human IgG1, kappa, V domains shown)
VH: B1 VH with N31R, L41P, K55N, L103F, Y105W
VL: B1 VL with I33V, A52S, D56H, E93D
modifications: synthon KZ on reduced interchain cysteines; average DAR 2.3 per ADC
B5: AbA-WD (antibody, human IgG1, kappa, V domains shown)
VH: B1 VH with N31R, L41P, K55N, L103F
VL: B1 VL with T30N, Y31S, A52T, D92A, E93Q
modifications: synthon WD on reduced interchain cysteines; average DAR 1.8 per ADC
B6: AbA-AAD (antibody, human IgG1, kappa, V domains shown)
VH: B1 VH with N31R, L41P, K55N, L103F
VL: B1 VL with T30N, Y31S, A52T, D92A, E93Q
modifications: synthon AAD on reduced interchain cysteines; average DAR 3.3 per ADC
B7: AbG-YY (antibody, human IgG1, kappa, V domains shown)
VH: B1 VH
VL: B1 VL
modifications: synthon YY on reduced interchain cysteines; average DAR 2.2 per ADC
B8: AbG-AAD (antibody, human IgG1, kappa, V domains shown)
VH: B1 VH
VL: B1 VL
modifications: synthon AAD on reduced interchain cysteines; average DAR 3.4 per ADC
B9: AbK-AAD (antibody, human IgG1, kappa, V domains shown)
VH: B1 VH with N31R, L41P, K55N, L103F, Y105W
VL: B1 VL with I33V, A52S, D56H, E93D
modifications: synthon AAD on reduced interchain cysteines; average DAR 2.8 per ADC
B10: AbK-YG (antibody, human IgG1, kappa, V domains shown)
VH: B1 VH with N31R, L41P, K55N, L103F, Y105W
VL: B1 VL with I33V, A52S, D56H, E93D
modifications: synthon YG on reduced interchain cysteines; average DAR 0.9 per ADC
B11: AbB-WD (antibody, human IgG1, kappa, V domains shown)
VH: B1 VH with L41P, L103F, Y105W
VL: B1 VL with T30N, Y31S, A52T, D92A, E93Q
modifications: synthon WD on reduced interchain cysteines; average DAR 1.6 per ADC
B12: AbK-TV (antibody, human IgG1, kappa, V domains shown)
VH: B1 VH with N31R, L41P, K55N, L103F, Y105W
VL: B1 VL with I33V, A52S, D56H, E93D
modifications: synthon TV on reduced interchain cysteines; average DAR 2.4 per ADC
B13: AbG-TV (antibody, human IgG1, kappa, V domains shown)
VH: B1 VH
VL: B1 VL
modifications: synthon TV on reduced interchain cysteines; average DAR 3.7 per ADC
B14: AbK-XW (antibody, human IgG1, kappa, V domains shown)
VH: B1 VH with N31R, L41P, K55N, L103F, Y105W
VL: B1 VL with I33V, A52S, D56H, E93D
modifications: synthon XW on reduced interchain cysteines; average DAR 2.8 per ADC
B15: AbB-LB (antibody, human IgG1, kappa, V domains shown)
VH: B1 VH with L41P, L103F, Y105W
VL: B1 VL with T30N, Y31S, A52T, D92A, E93Q
modifications: synthon LB on reduced interchain cysteines; average DAR 1.8 per ADC
B16: AbB-TV (antibody, human IgG1, kappa, V domains shown)
VH: B1 VH with L41P, L103F, Y105W
VL: B1 VL with T30N, Y31S, A52T, D92A, E93Q
modifications: synthon TV on reduced interchain cysteines; average DAR 2.3 per ADC
B17: AbG-TX (antibody, human IgG1, kappa, V domains shown)
VH: B1 VH
VL: B1 VL
modifications: synthon TX on reduced interchain cysteines; average DAR 3.3 per ADC
B18: AbK-AAA (antibody, human IgG1, kappa, V domains shown)
VH: B1 VH with N31R, L41P, K55N, L103F, Y105W
VL: B1 VL with I33V, A52S, D56H, E93D
modifications: synthon AAA on reduced interchain cysteines; average DAR 1.6 per ADC
B19: AbK-TX (antibody, human IgG1, kappa, V domains shown)
VH: B1 VH with N31R, L41P, K55N, L103F, Y105W
VL: B1 VL with I33V, A52S, D56H, E93D
modifications: synthon TX on reduced interchain cysteines; average DAR 2.2 per ADC
B20: AbK-SE (antibody, human IgG1, kappa, V domains shown)
VH: B1 VH with N31R, L41P, K55N, L103F, Y105W
VL: B1 VL with I33V, A52S, D56H, E93D
modifications: synthon SE on reduced interchain cysteines; average DAR 2.7 per ADC
B21: AbA-TV (antibody, human IgG1, kappa, V domains shown)
VH: B1 VH with N31R, L41P, K55N, L103F
VL: B1 VL with T30N, Y31S, A52T, D92A, E93Q
modifications: synthon TV on reduced interchain cysteines; average DAR 3.7 per ADC
B22: AbG-KZ (antibody, human IgG1, kappa, V domains shown)
VH: B1 VH
VL: B1 VL
modifications: synthon KZ on reduced interchain cysteines; average DAR 2.7 per ADC
B23: AbA-TX (antibody, human IgG1, kappa, V domains shown)
VH: B1 VH with N31R, L41P, K55N, L103F
VL: B1 VL with T30N, Y31S, A52T, D92A, E93Q
modifications: synthon TX on reduced interchain cysteines; average DAR 2.8 per ADC
B24: AbB-AAD (antibody, human IgG1, kappa, V domains shown)
VH: B1 VH with L41P, L103F, Y105W
VL: B1 VL with T30N, Y31S, A52T, D92A, E93Q
modifications: synthon AAD on reduced interchain cysteines; average DAR 2.7 per ADC
B25: AbK-CZ (antibody, human IgG1, kappa, V domains shown)
VH: B1 VH with N31R, L41P, K55N, L103F, Y105W
VL: B1 VL with I33V, A52S, D56H, E93D
modifications: synthon CZ on reduced interchain cysteines; average DAR 3.4 per ADC
B26: AbB-CZ (antibody, human IgG1, kappa, V domains shown)
VH: B1 VH with L41P, L103F, Y105W
VL: B1 VL with T30N, Y31S, A52T, D92A, E93Q
modifications: synthon CZ on reduced interchain cysteines; average DAR 3.5 per ADC
B27: AbG-YG (antibody, human IgG1, kappa, V domains shown)
VH: B1 VH
VL: B1 VL
modifications: synthon YG on reduced interchain cysteines; average DAR 3.7 per ADC
B28: AbG-WD (antibody, human IgG1, kappa, V domains shown)
VH: B1 VH
VL: B1 VL
modifications: synthon WD on reduced interchain cysteines; average DAR 3.4 per ADC
B29: AbK-ZT (antibody, human IgG1, kappa, V domains shown)
VH: B1 VH with N31R, L41P, K55N, L103F, Y105W
VL: B1 VL with I33V, A52S, D56H, E93D
modifications: synthon ZT on reduced interchain cysteines; average DAR 1.3 per ADC
B30: AbG-CZ (antibody, human IgG1, kappa, V domains shown)
VH: B1 VH
VL: B1 VL
modifications: synthon CZ on reduced interchain cysteines; average DAR 3.4 per ADC
B31: AbK-ZZ (antibody, human IgG1, kappa, V domains shown)
VH: B1 VH with N31R, L41P, K55N, L103F, Y105W
VL: B1 VL with I33V, A52S, D56H, E93D
modifications: synthon ZZ on reduced interchain cysteines; average DAR 1.9 per ADC
B32: AbK-SR (antibody, human IgG1, kappa, V domains shown)
VH: B1 VH with N31R, L41P, K55N, L103F, Y105W
VL: B1 VL with I33V, A52S, D56H, E93D
modifications: synthon SR on reduced interchain cysteines; average DAR 2.3 per ADC
B33: AbA-LB (antibody, human IgG1, kappa, V domains shown)
VH: B1 VH with N31R, L41P, K55N, L103F
VL: B1 VL with T30N, Y31S, A52T, D92A, E93Q
modifications: synthon LB on reduced interchain cysteines; average DAR 2.4 per ADC
B34: AbK-YY (antibody, human IgG1, kappa, V domains shown)
VH: B1 VH with N31R, L41P, K55N, L103F, Y105W
VL: B1 VL with I33V, A52S, D56H, E93D
modifications: synthon YY on reduced interchain cysteines; average DAR 1.7 per ADC
B35: AbB-YY (antibody, human IgG1, kappa, V domains shown)
VH: B1 VH with L41P, L103F, Y105W
VL: B1 VL with T30N, Y31S, A52T, D92A, E93Q
modifications: synthon YY on reduced interchain cysteines; average DAR 2.2 per ADC

Experiments:
[1] = molecular target: EGFR on EGFR positive non-small cell lung cancer cells NCI-H1650 (UniProt P00533 25-1210); experiment: cell-based or functional assay
[2] = molecular target: human EGFR (huEGFR) over-expressed on mcl-1-/- mouse embryonic fibroblasts (human, UniProt P00533 25-1210); experiment: cell-based or functional assay

Binder | H1650 CTG-3D EC50 [1] [µg/mL] | H1650 GFP Flourescence EC50 [1] [µg/mL] | huEGFR+ mcl-1-/- MEF EC50 [2] [nM]
B1 | 1.31 | 1.38 | 7
B2 | 2.39 | 3.72 | 11
B3 | 0.12 | 0.17 | 220
B4 | > 40 | > 40 | 224
B5 | 23.6 | 7.62 | 304
B6 | 0.79 | 0.36 | 65
B7 | 0.4 | 1.1 | > 500
B8 | 0.02 | 0.03 | 108
B9 | 0.01 | 0.06 | 0.4
B10 | 12.3 | 10.4 | 37
B11 | 2.69 | 1.01 | 23
B12 | 0.05 | 0.16 | 0.15
B13 | 0.03 | 0.04 | 2.6
B14 | > 40 | 8.53 | 0.6
B15 | 1.07 | 2.38 | 31
B16 | 0.86 | 0.74 | 2.4
B17 | 0.15 | 0.51 | 5.3
B18 | 0.11 | 0.16 | 3.4

Binder | H1650 CTG-3D EC50 [1] [µg/mL] | H1650 GFP Flourescence EC50 [1] [µg/mL] | huEGFR+ mcl-1-/- MEF EC50 [2] [nM]
B19 | 1.07 | 1.47 | 0.79
B20 | 2.67 | 1.68 | 161
B21 | 0.34 | 0.69 | 3
B22 | 38.3 | 38.2 | 96
B23 | > 40 | 13.9 | 16
B24 | 0.16 | 0.59 | 4.6
B25 | 0.08 | 0.21 | 0.1
B26 | 1.27 | 0.88 | 5.9
B27 | 1.24 | 0.63 | 1
B28 | 2.03 | 0.36 | 5.8
B29 | 0.05 | 0.12 | 0.2
B30 | 0.07 | 0.25 | 3.4
B31 | 0.03 | 0.16 | 45
B32 | 1.74 | 1.36 | 8.9
B33 | 4.05 | 2.48 | 27
B34 | 0.49 | 1.09 | 47
B35 | 8.6 | 7.73 | 51
